According to the supplement of paper PMC10567573:

B1: ZNF449 (parent)
chain: FQEYDTDCEVFRQRFRQFQYREAA
B2: ZNF649 (parent)
chain: YHTGKTPFVCPECGQPCSQKSGLI

Variants of: B1
Assay: protein stability index of a GFP-peptide fusion (GPS, HEK-293T) (PSI 1-6); higher = more stable
Conditions: c terminus: a fixed tail appended
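Note: lentivirally expressed fusions sorted by FACS into six bins by GFP to DsRed ratio, PSI derived from sequencing read proportions per bin multiplied by bin number.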

Row | Variant | protein stability index
1 | FQEYDTDCEVFRQRFRQFQYREAY [A24Y] | 2.33
2 | FQEYDTDCEVFRQRFRQFQYREAV [A24V] | 2.13
3 | FQEYDTDCEVFRQRFRQFQYREAW [A24W] | 1.93

Variants of: B2
Assay: as above
Conditions: c terminus: a fixed tail appended

Row | Variant | protein stability index
4 | YETGKTPFVCPECGQPCSQKSGLI [H2E] | 3.55
5 | YVTGKTPFVCPECGQPCSQKSGLI [H2V] | 1.96
6 | YWTGKTPFVCPECGQPCSQKSGLI [H2W] | 2.06
7 | YQTGKTPFVCPECGQPCSQKSGLI [H2Q] | 2.28
8 | YFTGKTPFVCPECGQPCSQKSGLI [H2F] | 2.25
9 | YITGKTPFVCPECGQPCSQKSGLI [H2I] | 2.36
10 | YDTGKTPFVCPECGQPCSQKSGLI [H2D] | 3.69
11 | YATGKTPFVCPECGQPCSQKSGLI [H2A] | 1.99
12 | YKTGKTPFVCPECGQPCSQKSGLI [H2K] | 2.76
13 | YPTGKTPFVCPECGQPCSQKSGLI [H2P] | 2.15
14 | YGTGKTPFVCPECGQPCSQKSGLI [H2G] | 1.98
15 | YNTGKTPFVCPECGQPCSQKSGLI [H2N] | 2.39
16 | YMTGKTPFVCPECGQPCSQKSGLI [H2M] | 2.51
17 | YLTGKTPFVCPECGQPCSQKSGLI [H2L] | 2.2
18 | YYTGKTPFVCPECGQPCSQKSGLI [H2Y] | 2.42
19 | YRTGKTPFVCPECGQPCSQKSGLI [H2R] | 2.1
20 | YHTGKLPFVCPECGQPCSQKSGLI [T6L] | 2.21
21 | YHTGKCPFVCPECGQPCSQKSGLI [T6C] | 1.45
22 | YHTGKFPFVCPECGQPCSQKSGLI [T6F] | 2.42
23 | YHTGKIPFVCPECGQPCSQKSGLI [T6I] | 2.22
24 | YHTGKKPFVCPECGQPCSQKSGLI [T6K] | 1.79
25 | YHTGKAPFVCPECGQPCSQKSGLI [T6A] | 2.07
26 | YHTGKEPFVCPECGQPCSQKSGLI [T6E] | 2.89

Row | Variant | protein stability index
27 | YHTGKHPFVCPECGQPCSQKSGLI [T6H] | 2.91
28 | YHTGKDPFVCPECGQPCSQKSGLI [T6D] | 1.92
29 | YHTGKGPFVCPECGQPCSQKSGLI [T6G] | 1.71
30 | YHWGKTPFVCPECGQPCSQKSGLI [T3W] | 1.48
31 | YHDGKTPFVCPECGQPCSQKSGLI [T3D] | 2.68
32 | YHYGKTPFVCPECGQPCSQKSGLI [T3Y] | 1.27
33 | YHKGKTPFVCPECGQPCSQKSGLI [T3K] | 2.87
34 | YHLGKTPFVCPECGQPCSQKSGLI [T3L] | 1.76
35 | YHPGKTPFVCPECGQPCSQKSGLI [T3P] | 1.61
36 | YHRGKTPFVCPECGQPCSQKSGLI [T3R] | 2.23
37 | YHIGKTPFVCPECGQPCSQKSGLI [T3I] | 1.56
38 | YHNGKTPFVCPECGQPCSQKSGLI [T3N] | 2.03
39 | YHAGKTPFVCPECGQPCSQKSGLI [T3A] | 2.57
40 | YHEGKTPFVCPECGQPCSQKSGLI [T3E] | 2.85
41 | YHHGKTPFVCPECGQPCSQKSGLI [T3H] | 2.78
42 | YHCGKTPFVCPECGQPCSQKSGLI [T3C] | 2.38
43 | YHVGKTPFVCPECGQPCSQKSGLI [T3V] | 2.46
44 | SHTGKTPFVCPECGQPCSQKSGLI [Y1S] | 3.72
45 | QHTGKTPFVCPECGQPCSQKSGLI [Y1Q] | 2.47
46 | MHTGKTPFVCPECGQPCSQKSGLI [Y1M] | 1.65
47 | PHTGKTPFVCPECGQPCSQKSGLI [Y1P] | 3.28
48 | HHTGKTPFVCPECGQPCSQKSGLI [Y1H] | 3.46
49 | VHTGKTPFVCPECGQPCSQKSGLI [Y1V] | 3.5

Row | Variant | protein stability index
50 | KHTGKTPFVCPECGQPCSQKSGLI [Y1K] | 2.72
51 | DHTGKTPFVCPECGQPCSQKSGLI [Y1D] | 3.98
52 | NHTGKTPFVCPECGQPCSQKSGLI [Y1N] | 3.08
53 | IHTGKTPFVCPECGQPCSQKSGLI [Y1I] | 2.69
54 | AHTGKTPFVCPECGQPCSQKSGLI [Y1A] | 3.92
55 | RHTGKTPFVCPECGQPCSQKSGLI [Y1R] | 2.69
56 | EHTGKTPFVCPECGQPCSQKSGLI [Y1E] | 3.71
57 | THTGKTPFVCPECGQPCSQKSGLI [Y1T] | 3.06
58 | WHTGKTPFVCPECGQPCSQKSGLI [Y1W] | 2.48
59 | LHTGKTPFVCPECGQPCSQKSGLI [Y1L] | 2.51
60 | GHTGKTPFVCPECGQPCSQKSGLI [Y1G] | 3.8
61 | CHTGKTPFVCPECGQPCSQKSGLI [Y1C] | 3.52
62 | YHTCKTPFVCPECGQPCSQKSGLI [G4C] | 2.49
63 | YHTVKTPFVCPECGQPCSQKSGLI [G4V] | 2.88
64 | YHTFKTPFVCPECGQPCSQKSGLI [G4F] | 2.36
65 | YHTMKTPFVCPECGQPCSQKSGLI [G4M] | 1.89
66 | YHTDKTPFVCPECGQPCSQKSGLI [G4D] | 2.48
67 | YHTIKTPFVCPECGQPCSQKSGLI [G4I] | 1.69
68 | YHTKKTPFVCPECGQPCSQKSGLI [G4K] | 2.18
69 | YHTEKTPFVCPECGQPCSQKSGLI [G4E] | 2.89
70 | YHTTKTPFVCPECGQPCSQKSGLI [G4T] | 2.62
71 | YHTNKTPFVCPECGQPCSQKSGLI [G4N] | 1.67
72 | YHTPKTPFVCPECGQPCSQKSGLI [G4P] | 1.83

Row | Variant | protein stability index
73 | YHTHKTPFVCPECGQPCSQKSGLI [G4H] | 1.96
74 | YHTRKTPFVCPECGQPCSQKSGLI [G4R] | 1.62
75 | YHTQKTPFVCPECGQPCSQKSGLI [G4Q] | 1.51
76 | YHTAKTPFVCPECGQPCSQKSGLI [G4A] | 1.49
77 | YHTYKTPFVCPECGQPCSQKSGLI [G4Y] | 1.69
78 | YHTLKTPFVCPECGQPCSQKSGLI [G4L] | 2.41
79 | YHTGRTPFVCPECGQPCSQKSGLI [K5R] | 2
80 | YHTGPTPFVCPECGQPCSQKSGLI [K5P] | 2.66
81 | YHTGDTPFVCPECGQPCSQKSGLI [K5D] | 1.77
82 | YHTGFTPFVCPECGQPCSQKSGLI [K5F] | 1.88
83 | YHTGQTPFVCPECGQPCSQKSGLI [K5Q] | 1.86
84 | YHTGNTPFVCPECGQPCSQKSGLI [K5N] | 1.81
85 | YHTGLTPFVCPECGQPCSQKSGLI [K5L] | 2
86 | YHTGYTPFVCPECGQPCSQKSGLI [K5Y] | 3.06
87 | YHTGATPFVCPECGQPCSQKSGLI [K5A] | 1.62
88 | YHTGTTPFVCPECGQPCSQKSGLI [K5T] | 1.13
89 | YHTGGTPFVCPECGQPCSQKSGLI [K5G] | 2.54
90 | YHTGETPFVCPECGQPCSQKSGLI [K5E] | 2.16
91 | YHTGMTPFVCPECGQPCSQKSGLI [K5M] | 2.44
92 | YHTGSTPFVCPECGQPCSQKSGLI [K5S] | 2.62
93 | YHTGWTPFVCPECGQPCSQKSGLI [K5W] | 2.1
94 | YHTGHTPFVCPECGQPCSQKSGLI [K5H] | 1.86
